Tests used:
Test in all cases: flow cytometry on transfected 293F cells
[1] = biological target: T1, human PTPRS isoform 4 without signal sequence, FLAG-tagged, expressed from pFLAG-PTPRS-4 (human, UniProt Q13332 30-1948)
T1 construct: not shown: FLAG tag supplied by the vector pFLAG-GW
T1 sequence: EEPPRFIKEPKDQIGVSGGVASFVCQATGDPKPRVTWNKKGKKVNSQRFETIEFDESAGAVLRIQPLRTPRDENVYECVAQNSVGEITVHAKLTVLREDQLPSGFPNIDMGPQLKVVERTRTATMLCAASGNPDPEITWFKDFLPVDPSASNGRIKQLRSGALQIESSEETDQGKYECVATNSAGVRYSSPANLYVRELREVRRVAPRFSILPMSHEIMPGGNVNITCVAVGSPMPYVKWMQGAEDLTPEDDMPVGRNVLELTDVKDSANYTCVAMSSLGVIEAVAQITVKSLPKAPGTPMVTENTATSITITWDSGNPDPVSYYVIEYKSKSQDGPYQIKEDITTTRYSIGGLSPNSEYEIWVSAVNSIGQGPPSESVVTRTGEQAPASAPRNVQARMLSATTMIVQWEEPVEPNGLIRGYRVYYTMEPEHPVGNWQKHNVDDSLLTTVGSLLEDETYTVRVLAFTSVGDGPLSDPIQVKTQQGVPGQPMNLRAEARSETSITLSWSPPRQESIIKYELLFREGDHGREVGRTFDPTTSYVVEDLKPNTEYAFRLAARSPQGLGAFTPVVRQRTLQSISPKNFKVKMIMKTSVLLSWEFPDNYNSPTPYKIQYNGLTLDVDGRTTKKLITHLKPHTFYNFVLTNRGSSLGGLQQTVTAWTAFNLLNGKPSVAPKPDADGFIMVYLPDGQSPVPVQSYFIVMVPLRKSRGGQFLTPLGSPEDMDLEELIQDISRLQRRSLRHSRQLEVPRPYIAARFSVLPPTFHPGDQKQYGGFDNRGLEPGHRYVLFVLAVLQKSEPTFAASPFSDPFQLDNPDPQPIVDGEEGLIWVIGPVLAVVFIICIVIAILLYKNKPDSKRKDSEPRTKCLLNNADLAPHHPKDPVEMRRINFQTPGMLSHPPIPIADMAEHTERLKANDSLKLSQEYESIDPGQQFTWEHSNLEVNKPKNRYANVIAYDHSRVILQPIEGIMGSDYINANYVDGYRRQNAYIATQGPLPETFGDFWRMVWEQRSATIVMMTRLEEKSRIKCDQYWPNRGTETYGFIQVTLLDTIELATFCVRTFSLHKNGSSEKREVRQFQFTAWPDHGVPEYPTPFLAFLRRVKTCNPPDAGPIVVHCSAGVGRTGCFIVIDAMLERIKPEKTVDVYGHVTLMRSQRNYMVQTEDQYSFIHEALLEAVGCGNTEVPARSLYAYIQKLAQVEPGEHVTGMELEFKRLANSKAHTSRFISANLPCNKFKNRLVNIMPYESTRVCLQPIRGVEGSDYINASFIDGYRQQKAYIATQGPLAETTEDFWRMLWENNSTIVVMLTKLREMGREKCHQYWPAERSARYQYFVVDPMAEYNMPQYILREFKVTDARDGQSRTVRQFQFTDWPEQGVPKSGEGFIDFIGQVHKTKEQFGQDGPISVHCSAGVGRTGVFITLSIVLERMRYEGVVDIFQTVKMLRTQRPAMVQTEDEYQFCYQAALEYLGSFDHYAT

[2] = biological target: T2, human EPHB3 without signal sequence, FLAG-tagged, expressed from pFLAG-EPHB3 (human, UniProt P54753 38-998)
T2 construct: not shown: FLAG tag supplied by the vector pFLAG-GW
T2 sequence: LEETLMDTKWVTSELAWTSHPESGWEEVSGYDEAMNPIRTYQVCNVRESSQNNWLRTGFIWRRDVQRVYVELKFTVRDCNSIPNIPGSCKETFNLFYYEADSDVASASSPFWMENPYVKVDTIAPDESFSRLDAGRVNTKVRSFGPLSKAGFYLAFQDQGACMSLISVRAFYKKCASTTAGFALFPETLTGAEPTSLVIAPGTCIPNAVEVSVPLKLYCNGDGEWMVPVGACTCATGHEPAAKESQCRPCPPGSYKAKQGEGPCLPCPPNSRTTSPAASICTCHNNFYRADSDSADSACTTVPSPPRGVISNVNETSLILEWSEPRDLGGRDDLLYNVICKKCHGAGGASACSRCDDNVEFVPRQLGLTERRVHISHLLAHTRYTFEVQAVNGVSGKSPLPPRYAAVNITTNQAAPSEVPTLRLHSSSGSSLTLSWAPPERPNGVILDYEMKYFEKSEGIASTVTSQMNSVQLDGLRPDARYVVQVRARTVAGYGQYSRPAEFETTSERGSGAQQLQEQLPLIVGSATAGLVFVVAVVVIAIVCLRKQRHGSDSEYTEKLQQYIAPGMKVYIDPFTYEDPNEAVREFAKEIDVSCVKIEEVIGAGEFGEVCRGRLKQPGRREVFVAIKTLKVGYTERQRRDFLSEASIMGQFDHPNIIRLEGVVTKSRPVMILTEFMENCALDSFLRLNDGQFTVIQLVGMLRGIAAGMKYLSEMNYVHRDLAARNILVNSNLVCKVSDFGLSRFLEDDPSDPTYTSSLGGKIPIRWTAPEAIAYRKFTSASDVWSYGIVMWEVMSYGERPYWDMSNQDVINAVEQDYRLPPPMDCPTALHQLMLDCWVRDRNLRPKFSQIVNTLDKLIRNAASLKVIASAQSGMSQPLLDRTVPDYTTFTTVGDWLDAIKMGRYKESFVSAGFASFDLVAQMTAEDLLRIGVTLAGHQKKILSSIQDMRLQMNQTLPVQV

[3] = biological target: T3, human PTPRF isoform 2 without signal sequence, FLAG-tagged, expressed from pFLAG-PTPRF-2 (human, UniProt P10586 30-1907)
T3 construct: not shown: FLAG tag supplied by the vector pFLAG-GW

Measured: binding result

T3 sequence (P10586 other isoform, or with tags, fused parts or gaps): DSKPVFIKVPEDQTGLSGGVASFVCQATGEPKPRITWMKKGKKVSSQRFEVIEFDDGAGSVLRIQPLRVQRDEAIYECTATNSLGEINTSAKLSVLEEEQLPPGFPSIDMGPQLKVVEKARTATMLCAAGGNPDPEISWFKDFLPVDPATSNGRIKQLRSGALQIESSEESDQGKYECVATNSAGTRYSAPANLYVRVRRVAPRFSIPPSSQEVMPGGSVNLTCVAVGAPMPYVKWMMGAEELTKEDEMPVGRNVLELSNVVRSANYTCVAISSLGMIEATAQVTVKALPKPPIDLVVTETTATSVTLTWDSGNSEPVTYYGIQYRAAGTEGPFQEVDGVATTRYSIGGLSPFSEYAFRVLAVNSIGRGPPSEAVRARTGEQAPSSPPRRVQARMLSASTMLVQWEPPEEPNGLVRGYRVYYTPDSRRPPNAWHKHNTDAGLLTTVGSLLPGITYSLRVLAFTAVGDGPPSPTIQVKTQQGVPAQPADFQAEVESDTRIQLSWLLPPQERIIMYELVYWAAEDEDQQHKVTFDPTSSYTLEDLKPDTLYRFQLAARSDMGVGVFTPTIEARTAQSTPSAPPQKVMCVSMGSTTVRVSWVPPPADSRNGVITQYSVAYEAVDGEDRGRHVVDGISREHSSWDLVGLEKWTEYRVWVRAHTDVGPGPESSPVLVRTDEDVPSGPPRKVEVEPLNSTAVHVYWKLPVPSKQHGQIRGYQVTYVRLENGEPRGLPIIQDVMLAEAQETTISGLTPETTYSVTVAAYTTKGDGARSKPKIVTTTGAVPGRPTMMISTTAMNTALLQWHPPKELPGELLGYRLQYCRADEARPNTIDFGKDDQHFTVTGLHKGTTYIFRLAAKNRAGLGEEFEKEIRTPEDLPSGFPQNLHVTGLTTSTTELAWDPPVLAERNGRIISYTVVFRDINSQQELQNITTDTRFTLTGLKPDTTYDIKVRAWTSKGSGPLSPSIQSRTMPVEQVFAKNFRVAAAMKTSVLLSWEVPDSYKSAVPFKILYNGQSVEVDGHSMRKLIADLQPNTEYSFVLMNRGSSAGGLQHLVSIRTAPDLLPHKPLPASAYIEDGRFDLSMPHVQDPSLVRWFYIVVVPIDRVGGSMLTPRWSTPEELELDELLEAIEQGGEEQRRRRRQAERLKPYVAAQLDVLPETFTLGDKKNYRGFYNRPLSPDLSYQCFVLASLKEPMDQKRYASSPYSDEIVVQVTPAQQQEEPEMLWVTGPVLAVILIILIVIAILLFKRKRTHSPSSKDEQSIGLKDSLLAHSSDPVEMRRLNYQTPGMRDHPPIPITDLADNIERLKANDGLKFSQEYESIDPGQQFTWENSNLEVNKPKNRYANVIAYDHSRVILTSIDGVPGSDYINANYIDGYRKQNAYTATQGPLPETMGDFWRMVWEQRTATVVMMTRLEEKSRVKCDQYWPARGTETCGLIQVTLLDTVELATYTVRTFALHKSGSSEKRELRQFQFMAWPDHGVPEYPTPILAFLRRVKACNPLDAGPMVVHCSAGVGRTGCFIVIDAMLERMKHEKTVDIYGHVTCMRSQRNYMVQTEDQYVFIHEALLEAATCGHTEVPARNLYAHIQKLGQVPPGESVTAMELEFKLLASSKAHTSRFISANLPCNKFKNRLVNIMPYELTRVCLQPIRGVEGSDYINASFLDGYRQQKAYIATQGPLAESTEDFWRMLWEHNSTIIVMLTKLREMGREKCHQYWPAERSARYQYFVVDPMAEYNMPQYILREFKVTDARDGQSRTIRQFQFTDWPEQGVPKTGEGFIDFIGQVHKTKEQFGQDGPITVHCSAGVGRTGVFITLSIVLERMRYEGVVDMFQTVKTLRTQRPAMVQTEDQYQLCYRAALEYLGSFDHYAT

B1: mouse anti-human EPHA2 antibody A205 (antibody, V domains shown)
VH: QIQLVQSGPELKKPGETVKISCKASGYTFTDYSMNWVKQAPGKGLKWMGWINTYTGEPTYADDFKGRFAFSLETSASTAYLQINNLKNEDTATYFCASPISLLRLLDYWGQGTTLTVSS
VL: DVVMTQTPLSLPVSLGDQASIPCRSSQSLVHSNGNTYLHWYLQKPGQSPKLLIYKVSNRFSGVPDRFSGSGSGTDFTLKISRVEAEDLGVYFCSQSTHVPWTFGGGTKLEIKR
notes: Mouse monoclonal antibody purified from hybridoma supernatant, isotype IgG2b; also called A205 antibody
no binding: all assays above

B2: mouse anti-human EPHA2 antibody A201 (antibody, V domains shown)
VH: EVQLQQSGAELVKPGASVKLSCTVSGFTFKDTYVHWVKQRPEQGLEWIGRIDPANANTKYDPKFQGKASITADTSSNTAYLQLSSLPSEDTAVYYCAAYGKSAWFAYWGQGTLVTVSA
VL: DIQMTQTTSSLSASLGDRVTISCRASQDIGNYLNWYQQKPDGTVKVLIYYTSRLHSGVPSRFSGSGSGTDYSLTISNLEQEDIATYFCQQGHSLPPTFGGGTKLEIKR
notes: Mouse monoclonal antibody purified from hybridoma supernatant, isotype IgG1; also called A201 antibody
no binding: all assays above

From WO2016171242A1 (dated 2016)
